Data on eight substances can be found in PMC11573645.

The test addresses complement component C3b, site-specifically biotinylated at Cys-1010 (human) (UniProt P01024). Put plainly: SPR.
As usually defined, the Kd is the free concentration of one partner at which half of the binding sites on the other are occupied at equilibrium, for simple one-to-one binding. For “Native FB purified from human serum (natural protein)”, the Ka-1 (two-state model, first step, association) turned out to be 168000 M⁻¹ s⁻¹; the Kd was found to be 109 nM; the Kd-1 (two-state model, first step, dissociation) was 0.0702 s⁻¹; the Kd-2 (two-state model, second step, reverse) came to 0.00249 s⁻¹.
For “recombinant FB with D279G and K350N (from UniProt P00751 26-764) (natural protein)”, the Ka-1 (two-state model, first step, association) came out at 225000 M⁻¹ s⁻¹; the Kd-1 (two-state model, first step, dissociation) is 0.0526 s⁻¹; the Kd-2 (two-state model, second step, reverse) came out at 0.0045 s⁻¹.
The matching figures for “recombinant FB with D279G mutation (from UniProt P00751 26-764) (natural protein)”: 304000 M⁻¹ s⁻¹, 0.0376 s⁻¹ and 0.00941 s⁻¹.
“recombinant FB with D279G, K350N, and S699A (from UniProt P00751 26-764) (natural protein)” displayed a Ka-1 (two-state model, first step, association) of 256000 M⁻¹ s⁻¹; a Kd of 104 nM; a Kd-1 (two-state model, first step, dissociation) of 0.0469 s⁻¹; a Kd-2 (two-state model, second step, reverse) of 0.00836 s⁻¹.
“recombinant FB with F286L mutation (from UniProt P00751 26-764) (natural protein)”: the Ka-1 (two-state model, first step, association) stood at 551000 M⁻¹ s⁻¹; the Ka-2 (two-state model, second step, forward) came out at 0.0289 s⁻¹; the Kd-1 (two-state model, first step, dissociation) was 0.0229 s⁻¹; the Kd-2 (two-state model, second step, reverse) stood at 0.0083 s⁻¹.
“recombinant FB with K323E mutation (from UniProt P00751 26-764) (natural protein)” displayed a Ka-1 (two-state model, first step, association) of 280000 M⁻¹ s⁻¹; a Kd of 159 nM; a Kd-1 (two-state model, first step, dissociation) of 0.0807 s⁻¹; a Kd-2 (two-state model, second step, reverse) of 0.00723 s⁻¹.
Taken in the same sequence, the figures for “recombinant FB with K350N mutation (from UniProt P00751 26-764) (natural protein)” were 131000 M⁻¹ s⁻¹, 322 nM, 0.0995 s⁻¹ and 0.00419 s⁻¹.
Consider “recombinant wild-type FB (from UniProt P00751 26-764) (natural protein)”, for which the Ka-1 (two-state model, first step, association) was 325000 M⁻¹ s⁻¹; the Kd-1 (two-state model, first step, dissociation) turned out to be 0.0796 s⁻¹; the Kd-2 (two-state model, second step, reverse) was determined as 0.0138 s⁻¹.
